Literature values, collected in PMC4117600.
Where two headings read alike, the source gives them in different places.

Key:
CCR4 (Homo sapiens) [1] = biological target: CCR4 (Homo sapiens) (UniProt P51679)
CCR4 (Homo sapiens) [2] = biological target: CCR4 (Homo sapiens) (UniProt P51679); remark: listed apart in the source

CCR4 (Homo sapiens), sequence (P51679 whole entry): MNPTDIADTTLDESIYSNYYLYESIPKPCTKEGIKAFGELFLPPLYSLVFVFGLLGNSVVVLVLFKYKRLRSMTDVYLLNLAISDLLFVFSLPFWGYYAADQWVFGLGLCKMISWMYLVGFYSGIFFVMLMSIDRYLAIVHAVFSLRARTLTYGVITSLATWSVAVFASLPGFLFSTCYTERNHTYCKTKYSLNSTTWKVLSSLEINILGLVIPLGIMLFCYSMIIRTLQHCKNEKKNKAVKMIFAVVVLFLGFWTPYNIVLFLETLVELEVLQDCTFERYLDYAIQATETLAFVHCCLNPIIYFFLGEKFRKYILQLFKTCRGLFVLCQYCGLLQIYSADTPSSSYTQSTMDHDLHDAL
CCL17, sequence (Q92583 24-94): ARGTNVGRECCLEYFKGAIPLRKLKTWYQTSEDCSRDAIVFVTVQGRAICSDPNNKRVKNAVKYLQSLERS
CCL22, sequence (O00626 25-93): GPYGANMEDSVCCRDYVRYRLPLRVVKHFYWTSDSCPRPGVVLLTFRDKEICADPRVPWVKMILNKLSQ

| Kd (CCR4 (Homo sapiens) [1]) [nM] | Kd (CCR4 (Homo sapiens) [2]) [nM] | Substance |
| --- | --- | --- |
| 2.1 |  | CCL17 (from UniProt Q92583) |
|  | 0.18 | CCL22 (from UniProt O00626) |
